According to the DeepSol protein solubility set:

Assay: soluble on expression in E. coli; label from the status in PepcDB or PDB records

Soluble on expression in E. coli, soluble:
MLSVGRGIADITGEAADCGMLGYGKSDQRTAGIHQRLRSRAFVFRDDSQDGDARLLLIVAELPLPMQNVNEEVLRRLADLYGDTYSEQNTLITATHTHAGPGGYCGYLLYNLTTSGFRPATFAAIVDGIVESVEHAHADVAPAEVSLSHGELYGASINRSPSAFDRNPPADKAFFPKRVDPHTTLVRIDRGEATVGVIHFFATHGTSMTNRNHLISGDNKGFAAYHWERTVGGADYLAGQPDFIAAFAQTNPGDMSPNVDGPLSPEAPPDREFDNTRRTGLCQFEDAFTQLSGATPIGAGIDARFTYVDLGSVLVRGEYTPDGEERRTGRPMFGAGAMAGTDEGPGFHGFRQGRNPFWDRLSRAMYRLARPTAAAQAPKGIVMPARLPNRIHPFVQEIVPVQLVRIGRLYLIGIPGEPTIVAGLRLRRMVASIVGADLADVLCVGYTNAYIHYVTTPEEYLEQRYEGGSTLFGRWELCALMQTVAELAEAMRDGRPVTLGRRPRPTRELSWVRGAPADAGSFGAVIAEPSATYRPGQAVEAVFVSALPNNDLRRGGTYLEVVRREGASWVRIADDGDWATSFRWQRQGRAGSHVSIRWDVPGDTTPGQYRIVHHGTARDRNGMLTAFSATTREFTVV
MFSDTDISMMENALRLAALGRFSTSPNPRVGCVIAHGSQIVGQGFHVKAGEPHAEVHALRQAGEMAQGATAFVTLEPCSHYGRTPPCAEALVRAGVSRVVAAMRDPNPLVAGKGLALLEAAGIKTECGLLEHQARELNRGFLSRIERRRPFVRLKCAVSLDGKTALSDGSSFWITGEDARADVQVLRAESCAVLTGIGTVLADNPRLNVRAFPTLRQPARIVLDSRLRLPPNSHLVTDGQSPTYIATLERNEDRLHPYREHAHVRILMPSETADSKIDLHHLMRLLADEGFGEIMVEAGSELTSAFLAENLADEIVLYRSPKILGSGKDLFSLLENRAALSAPPLWTPVSSEILGHNIKTVFRKNGNAF
GMTSNGQQGKPNLPEKDNLPRELGTQRINSPIARMGMFGAKTTGDTSGYGRLRVYRHVPAAAQRPYSDPSDPRTAYFDEVADALERSLKEIGTPYDTAISRVVVDRGEITFHVQREHLLDVATRLRDDPALRFELCLGVTGVHYPEDEGNELHAVYALRSITHNYEIRLEVSCPDSDPHIPSIVSVYPTNDWHEREAWDFFGIIFDGHPALTR

Soluble on expression in E. coli, not soluble:
SLGRQVYNFNPGWRFFKGDIRGAEAVNFDDRSWEVVSTPHTVELMPAEGSGCRNYQGPAWYRKHFVVPTATKGQRVLLHFEAAMGKQVLYLNGKRVQEHLGGYLPFTLDLTANGVQAGDSCLLAVYTDNSNDKSYPPGKPQYTLDFAYHGGIYRDVWMIAKSPVAITDAIDSRTVGGGGVFVHFDKISEKSAQVYVETEIQNDNTRSESVTIETTLTDAEGNVIKRTSGKLSLNSGEKKSIRQQMEVRNPKLWSPDAPYLYRVQSRIKKGNRSIDGGTTRIGIRLAEFRGKEGFWLNGKPFGQLVGANRHQDFAYVGNALPNSQQWRDAKRLRDAGCTIIRVAHYPQDPSFMDACDELGLFVIVATPGWQYWNKDPKFGELVHQNTREMIRRDRNHPSVLMWEPILNETRYPLDFALKALEITKEEYPYPGRPIAAADVHSAGVKEHYDVVYGWPGDDEKEDKPEQCIFTREFGENVDDWYAHNNNNRASRSWGERPLLIQALSLAKSYDEMYRTTGQFIGGTQWHPFDHQRGYHPDPYWGGIYDAFRQKKYAYEMFRSQSPASLQHPLAECGPMIFLAHEMSQFSDKDVVVFSNCDSIRLSIYDGTKTWTKPVVHAKGHMPNAPVIFENVWDFWEARGYSYTQKNWQKVNMVAEGIIDGKVVCTQKKMPSRRSTKLRLYADTQKVNLVADGSDFIVVVAEVTDDSGNVRRLAKENIVFTVEGEGEIIGDARIGANPRAVEFGSAPLLIRSTRKAGKIKVKAHVQFEGTQAPTAAEMEFESVPAELPFCYDEKEG
KINDFSIKHGLTEKFVVSFAGTLGFSQDMEVIIRAANELKEYKDIVFIIVGNGVRLEESKKLAESLNLQNIRFIPSVPREIYPLVLHSSDVSLATLTKDVKTPVVPSKILSIMSAGIPVIAVMNLEGDAPKLVEKANAGFAIPAGDYKSLAEKILLLYKNPELRESLGRNGRRY
MSSNHPLDQLYRQVIMDHYKNPRNRGVLEGTNVDVNMNNPTCGDRIHLTMKVEDGKVADVKFEGEGCSISMSSASMMTQAIKGKTVEEALRLAHIFSDMIQGKEYDDSVDLGDIEALQGVSKFPARIKCATLAWKALEKGLHNHEHEGR
MGSDKIHHHHHHMTLDLKQEKGREIFFRLAEKADVIIENFVPGVVKKLGVDYEAVKKVKPDIIYCHVSGFGQDGPYRDRPAFDQLIQGEAGIISYTGTRETPCKINVPITDLLASMYGAYAVLAALLRREKTGEGMEIDISLFDCAVTMMLNLMNMAIVEGMKDEELRMGTKYFLATPYEPYPAGDGKLVNVVVATEWHWKEFCKAVGLEELLDDPRFATNQQRLKHREQLERIIIEKFREKPRDDWIEILLKAGVPCGAVNTIQEVIEHPQTKHRKTVVEVDYPELGKIKLFNNPVKFSGFEVEVRRPPKLGEHTEEILKSIGLSEEEIADLRA
MGSDKIHHHHHHMIKITQVRDGGNHVTQSTLTLDAWVERMKEEVKTCPVTMFRSQLRHVLPGDHCEAADKLPKMMPAAEFRKTEGGQCMKAYNGLVELTVGPLAGRAEVEQVKREAWKLPQTRCAFMGASGHSVKILVAFTRPDNTLPLTRAEAEAFHAHAYIMAVKCYQPQLSFDIRPKEPFLEQYSRLSYDPDVLYRPDSVQFYLSQPMGMPDEMALHTEPAVSGQRPLERALGSYETADALSMLFEAALRQAYIDLDKPDPADEKSSYSWDTLLSQLALNCFRSGIPEEAVVSRARFRHFVRKPLELVRQVVRNVYSRRQDFGSKCALSREQQLSVLIAEFMKRRYEFRFNVQTGEAEFRERHSFCFRFQPVDKRALNSIALDAQAEGIPLWDRDISRYVYSNRVPVYNPLEDFLFNLPEWDGRDRIRPLAQTVPCDNPHWPELFHRWFLNMVAHWRGMDKRYANSVSPLLVGAQGTRKSTLFDFLKLYLA
MSAVLTAEDTLVLASTATPVEMELIMGWLGQQRARHPDSKFDILKLPPRNAPPAALTALVEQLEPGFASSPQSGEDRSIVPVRVIWLPPADRSRAGKVAALLPGRDPYHPSQRQQRRILRTDPRRARVVAGESAKVSELRQQWRDTTVAEHKRDFAQFVSRRALLALARAEYRILGPQYKSPRLVKPEMLASARFRAGLDRIPGATVEDAGKMLDELSTGWSQVSVDLVSVLGRLASRGFDPEFDYDEYQVAAMRAALEAHPAVLLFSHRSYIDGVVVPVAMQDNRLPPVHMFGGINLSFGLMGPLMRRSGMIFIRRNIGNDPLYKYVLKEYVGYVVEKRFNLSWSIEGTRSRTGKMLPPKLGLMSYVADAYLDGRSDDILLQGVSICFDQLHEITEYAAYARGAEKTPEGLRWLYNFIKAQGERNFGKIYVRFPEAVSMRQYLGAPHGELTQDPAAKRLALQKMSFEVAWRILQATPVTATGLVSALLLTTRGTALTLDQLHHTLQDSLDYLERKQSPVSTSALRLRSREGVRAAADALSNGHPVTRVDSGREPVWYIAPDDEHAAAFYRSSVIHAFLETSIVELALAHAKHAEGDRVAAFWAQAMRLRDLLKFDFYFADSTAFRANIAQEMAWHQDWEDHLGVGGNEIDAMLYAKRPLMSDAMLRVFFEAYEIVADVLRDAPPDIGPEELTELALGLGRQFVAQGRVRSSEPVSTLLFATARQVAVDQELIAPAADLAERRVAFRRELRNILRDFDYVEQIARNQFVAREFKARQGRDRILEHHHHHH
MSTDEERIYSIALTQIPGVGHIGAKRLVDGMGSATDVFRYRTELPDRLPGVNRAVVAALDSPQALKRAEQEYEFARNNRISCFTLADEDYPSRLRECDDAPVVLFFKGKANLNALHIINMVGTRNATDYGKHICVSFLQELQMLCPDVLVVSGLAYGIDINAHRSALSVELPTVGVLAHGLDRIYPSLHRKTAIDMLRQGGLLTEFLSGTNPDKHNFISRNRIVAGISDATIVVESAAKGGSLITADIAGSYHRDCFAFPGRVTDEYSKGCNQLIQDNKAVLLESASDFVKTMGWDSDLKSVKPETVQRNLFPDLSAEELRIVDILGKLGDLQINALMVQADIPINKISAILFELEMKGVIRVLAGGVYQLLR
MMTLPYPYSSSARFYALRLLPGQEVFSQLHAFAQQQQLHAAWIAGCTGSLTDIALRYAGQEGTTLLNGTFEVISLNGTLEQSGEHLHLCVSDPHGTMLGGHMMPGCTVRTTLELVIGSLEELAFSRQPCALSGYDELHISPVK
MRMMEAEIKDQRNNLQALKNSQRLSVRGSIQSNMSSRTDGILQRRLDETERKLAKTSAELKAKDEKLKKETASLEASREAHRLLQEESNKSKVSVMRLTFKLNRITHESVKEQAVLKKKLLDCETRLATYSECLVCYQKFDENTRIPRVMDCGHTLCDFCINQIVKMAGCYSATCPFDRVRIFGFGKSRRLEDRPCNRFIMK
LQNKFKKYSKIPTGNGMTGRDVAIKMLQDNGIYDVQVTHTPGQLTDHYNPANKTVNLSEGVYDSNSIMAAAVAAHECGHAVQHARAYAPLTLRSK
MGSDKIHHHHHHMTTTSTPGLFERPITLPDADAQSRLAKLVGMDDKIRRLSNVLAVLINPAGLKEWLDQHHAHSTGLLDAVLRRPPLVVLSGDVGSGKTELAETIGDMVARQEGIDITLLPLSLSSRGQGRVGEMTQLVSAAFDHAFHEASKVKSSRGSRSRGGVILLVDEADALAQSREADQMHHEDRAGVNAFIRGIDRLANGHLPAAVLMCTNRLNALDPAVRRRAADILVFERPDEAQRLEVLHRRLGDAGFGKADLQSLVAATGEQAKRPYGFTYSDLTQRLLPAIVLDAYPQGPIKPSRAIELARAMAPTPPFKDSTARGC
MIKLFTDSDLDGIGCGLLAKLAFAEVNISFCSYRNLDERVVQFLQSDEANGAMLFITDLAVGKEVEQQLAERAARGGHVQVIDHHVTALHFNDYPWGQVVPVRDDGKKTCATSLFYDYLVREGKLAPNETLDGFVELVRQYDTWEWEENGNLQAKRLNDLLTIFGLDGFWETMSERLASREPFSLTETEELLLDMEEKKIQRYIRQKQKQLVQRWLGDYCIGVVFAERHLSELGNALSKRYPHLDLIALVNMGTKHIGFRTIHDDVNVAEFAQQFGGGGHPKASGCLIDDTTFPLFVVETFPLLPVYGDAEQNQLNKKDEAEGVFWTNHHGQWWLSRKTAQGWSVYADGGETHTFPEEIAGERWLKRQFAAGLAHDAAVLDFLSVRLGRDKDAIQADYKAAVKQYKQQTGIES
MSLLAQLDQKIAANGGLIVSCQPVPDSPLDKPEIVAAMALAAEQAGAVAIRIEGVANLQATRAVVSVPIIGIVKRDLEDSPVRITAYIEDVDALAQAGADIIAIDGTDRPRPVPVETLLARIHHHGLLAMTDCSTPEDGLACQKLGAEIIGTTLSGYTTPETPEEPDLALVKTLSEAGCRVIAEGRYNTPAQAADAMRHGAWAVTVGSAITRLEHICQWYNTAMKKAVL
MGSDKIHHHHHHMTQEQTRPKHMAAGETPEQHAAFEARIARGEKIEPGDWMPAEYRRQLIRMISQHAHSEVVGMLPEGEWIARAPSLKRKTILMAKVQDEAGHGQYLYHAAETLGVTREEMLDALLTRKAKYSSIFNYPTLTWADVGMIGWLVDGAAIKNQTMLAGCSYGPYSRAMVRICSEETFHHKQGKEMMVLYAQGTPEQRQMAQDALNRWWWPAVQMLGPHDSDSPNTGALSKWGIKLKTNDEVRQEFINEHVPELLEAGLTIPDPDLHQDEAGNWVHGPIDWSEFWAVIKGEQGLGNERLATRQAAQDEGAWVREALEAYMARQAKGEAAD
MGSDKIHHHHHHTIVSCSDDKGEDGYNPNLPVRISELSPQEGGYFDKVILQGENFGNNPKKVRVFFNKKEAIVVGASGDRVLVHVPKLPGDDCKIGMLLNGNTTDTIFAEKHFAYEKNYQLIYVAGQLNSNTETFVEGSLETTTFANSMQHLACDPSGVIYMNHKNQVKVAVLFTLMNLRTTLSFWIMEHLLKTEARLALRIMMTKQRRFTSVRTMLHFFGKLILRIHGLL
